Reference: article PMC3166883

What was measured:
[1] = biological target: MART-1/Melan-A (anchor-modified decamer, modified at position 2) peptide on HLA-A*02:01 (human); assay: SPR
[2] = biological target: MART-1/Melan-A peptide on HLA-A*02:01 (human); assay: SPR

In the case of DMF4, the Kd [1] is reported as 29 µM.

DMF5 gave a Kd [1] of 6 µM and a Kd [2] of 40 µM.
